Results on one sequence are retold here after patent US5204445A, “Peptides and antibodies that inhibit integrin-ligand binding” (The Scripps Research Institute, priority 1989, dated 1993).

For assay [1], the target named is T1, beta subunit (GPIIIa) (Homo sapiens, UniProt P05106+P08514).
T1 construct: Platelets were isolated from fresh human blood collected into acid/citrate/dextrose; endogenous in cells; host or cells: washed human platelets, thrombin-stimulated or nonstimulated
Kind of assay: Chemical crosslinking of 125I-labeled RGD peptide to platelets (BS3), SDS-PAGE and autoradiography. The assay is classed as binding. Particulars: 125I-Fn-7 20 μM, thrombin-stimulated platelets, 45 min at 22° C., BS3 0.2 mM. The protocol: FIG. 2 illustrates the results of the crosslinking of an RGD peptide to discrete sites in the beta subunit (GPIIIa) of an Integrin adhesion receptor. The ^125 I-labeled RGD peptide, Fn-7 (20 μM), was bound to platelet (6×10^8 /ml) for 45 min at 22° C., and crosslinked with BS^3 (0.2 mM). The fragmentation patterns after proteolysis were analyzed by SDS-PAGE [Laemmli, Nature. 227:680 (1970)] and autoradiography. […] Lanes 2-7, GPIIIa:Fn-7 bands were excised from gels, subjected to proteolysis and then analyzed by SDS-PAGE (15% gels, reducing conditions). For lanes 2-5, GPIIIA:Fn-7 bands were excised and digestions with V-8 protease were performed within the gel slices as described in Cleveland et al., J. Biol. Chem., 252:1102 (1977).
Platelet binding of Fn-7 followed the protocols previously described for measuring platelet interactions with adhesive proteins and with this and other peptides. See, Ginsberg et al., J. Biol. Chem., 260:3931-3936 (1985); Lam et al , Fed. Proc. Fed. Am. Soc. Exp. Biol., 44:1126 (1985); and Marguerie et al., supra. […]
The cell-bound ligand was recovered by centrifugation through 20% sucrose, and the cells were extracted in PBS containing 1% Nonidet P40 and […] N-ethylmaleimide (Sigma). […] The cross-linked samples were analyzed by electrophoresis (SDS-PAGE) on polyacrylamide vertical slab gels in the buffer system of Laemmli, Nature, […] (1970). […]

The target in assay [2] is T2, alpha subunit (GPIIb) (Homo sapiens, UniProt P05106+P08514).
T2 construct: Platelets were isolated from fresh human blood collected into acid/citrate/dextrose; endogenous in cells; host or cells: washed human platelets, thrombin-stimulated
The description is as above. As to conditions: 125I-Fn-7 20 μM, thrombin-stimulated platelets, 45 min at 22° C., BS3 0.2 mM. Format: binding.

Turning to “KYGRRGDS [Fn-7, RGD-peptide with lysine for crosslinking and tyrosine for radioiodination]”, the “crosslinking to the beta subunit (GPIIIa)” value in assay [1] is on record as “predominance”. Also, in assay [2], the “crosslinking to the alpha subunit (GPIIb)” value is recorded as “more minor crosslinking”.
